Source: publication PMC4109836, “Analysis of the co-operative interaction between the allosterically regulated proteins GK and GKRP using tryptophan fluorescence” (Biochemical Journal, 2014)
Read-outs that look alike come from different tables or passages of the source.

Biological target: T1, GKRP-WT (Homo sapiens, UniProt P35557+Q14397, W167F/W257F/W99R)
T1 construct: FLAG; GST (cleaved yes); made in house; host or cells: Escherichia coli
T1 sequence (Q14397 1-625): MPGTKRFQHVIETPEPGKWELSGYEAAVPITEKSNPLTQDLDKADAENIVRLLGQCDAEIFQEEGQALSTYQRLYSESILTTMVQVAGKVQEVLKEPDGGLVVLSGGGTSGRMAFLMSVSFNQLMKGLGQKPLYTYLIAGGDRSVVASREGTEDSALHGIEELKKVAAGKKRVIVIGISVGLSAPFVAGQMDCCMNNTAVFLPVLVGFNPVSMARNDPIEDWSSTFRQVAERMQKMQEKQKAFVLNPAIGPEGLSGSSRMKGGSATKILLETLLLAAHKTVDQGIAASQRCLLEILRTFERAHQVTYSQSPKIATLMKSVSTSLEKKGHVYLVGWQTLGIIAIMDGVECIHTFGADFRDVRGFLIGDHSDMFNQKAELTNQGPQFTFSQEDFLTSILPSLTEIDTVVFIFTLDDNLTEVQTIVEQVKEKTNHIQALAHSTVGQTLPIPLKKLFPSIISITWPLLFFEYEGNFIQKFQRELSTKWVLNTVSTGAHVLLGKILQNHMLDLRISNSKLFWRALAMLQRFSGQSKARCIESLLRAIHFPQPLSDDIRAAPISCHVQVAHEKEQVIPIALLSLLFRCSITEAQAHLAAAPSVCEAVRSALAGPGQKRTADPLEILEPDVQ
T1 sequence (P35557 1-465 W99R/W167F/W257F): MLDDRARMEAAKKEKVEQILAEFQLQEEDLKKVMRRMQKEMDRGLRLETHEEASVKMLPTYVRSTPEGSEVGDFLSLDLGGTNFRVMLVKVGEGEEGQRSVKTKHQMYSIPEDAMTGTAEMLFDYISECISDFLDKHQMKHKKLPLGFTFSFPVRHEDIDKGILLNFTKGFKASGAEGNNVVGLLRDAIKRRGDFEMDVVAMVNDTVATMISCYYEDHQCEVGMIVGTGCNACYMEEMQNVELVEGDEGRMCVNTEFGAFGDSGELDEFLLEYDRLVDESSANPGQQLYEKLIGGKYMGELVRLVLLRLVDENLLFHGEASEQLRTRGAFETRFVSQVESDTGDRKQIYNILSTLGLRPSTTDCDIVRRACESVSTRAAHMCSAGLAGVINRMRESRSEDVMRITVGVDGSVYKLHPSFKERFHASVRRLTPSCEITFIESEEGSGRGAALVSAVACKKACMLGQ
Experiment: Titration of GKRP-WT with GK-W99R/W167F/W257F (GK–GKRP complex assembly) by TF;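 note: tryptophan fluorescence of GKRP titrated with GK, excitation 295 nm, emission read at 340 nm, phosphate buffer pH 7.2, Hill equation fitting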
Type: binding
Settings: for Kd: read-out: S0.5 of GK

[1] = GK titration with 20 μM GKA, 20°C
[2] = GK titration with 500 μM F1P, 20°C
[3] = GK titration with 500 μM F6P, sigmoidal fit, 20°C
[4] = GK titration with 500 μM F6P, simple saturation fit (H = 1)
[5] = GK titration with 100 mM D-glucose and 20 μM GKA, 20°C
[6] = GK titration with 100 mM D-glucose and 500 μM F1P, 20°C
[7] = GK titration with 100 mM D-glucose and 500 μM F6P, 20°C
[8] = GK titration with 100 mM D-glucose, 20°C
[9] = GK titration, no further agent, sigmoidal fit, 20°C
[10] = GK titration, no further agent, simple saturation fit (H = 1)

H [1]: 3.4
ΔF [1]: 0.42
Kd [1]: 2770 nM
H [2]: 2.8
ΔF [2]: 0.32
Kd [2]: 2680 nM
H [3]: 1.71
ΔF [3]: 0.31
Kd [3]: 1200 nM
H (GK titration with 500 μM F6P, simple saturation fit): 1
ΔF [4]: 0.43
Kd [4]: 1840 nM
H [5]: 3.2
ΔF [5]: 0.42
Kd [5]: 4750 nM
H [6]: 2.25
Kd [6]: 3300 nM
H [7]: 2.83
ΔF [7]: 0.35
Kd [7]: 2430 nM
H [8]: 2.78
ΔF [8]: 0.42
Kd [8]: 2560 nM
H [9]: 1.74
ΔF [9]: 0.29
Kd (GK titration, no further agent, sigmoidal fit, 20°C, listed as GK): ~1200 nM
Kd [9]: 1220 nM
H (GK titration, no further agent, simple saturation fit): 1
ΔF [10]: 0.39
Kd [10]: 1850 nM
maximal ΔTF value of GKRP-WT (range depending on the assay conditions): 0.29–0.42
increase of the TF of GKRP-WT (saturating GK (5 μM), 0.3 μM GKRP): 29%
S0.5 value of GK with GKRP-WT lower than with GKRP-P446L (on average) (with and without F6P): 35%
B1: GK-W99R/W167F/W257F: tryptophan residue-free, non-fluorescent recombinant human β-cell GK made for the present study (protein)
chain: MLDDRARMEAAKKEKVEQILAEFQLQEEDLKKVMRRMQKEMDRGLRLETHEEASVKMLPTYVRSTPEGSEVGDFLSLDLGGTNFRVMLVKVGEGEEGQRSVKTKHQMYSIPEDAMTGTAEMLFDYISECISDFLDKHQMKHKKLPLGFTFSFPVRHEDIDKGILLNFTKGFKASGAEGNNVVGLLRDAIKRRGDFEMDVVAMVNDTVATMISCYYEDHQCEVGMIVGTGCNACYMEEMQNVELVEGDEGRMCVNTEFGAFGDSGELDEFLLEYDRLVDESSANPGQQLYEKLIGGKYMGELVRLVLLRLVDENLLFHGEASEQLRTRGAFETRFVSQVESDTGDRKQIYNILSTLGLRPSTTDCDIVRRACESVSTRAAHMCSAGLAGVINRMRESRSEDVMRITVGVDGSVYKLHPSFKERFHASVRRLTPSCEITFIESEEGSGRGAALVSAVACKKACMLGQ
modifications: left off: GST, end not stated, cleaved
notes: tryptophan residue-free, non-fluorescent recombinant human β-cell GK made for the present study
